Results from patent US20140161800A1 (published 2014).

How the values were obtained:
[1] = target: T1, prostate-specific membrane antigen (PSMA) (human, UniProt Q04609 1-750); assay: FACS binding; LNCaP cells
[2] = target: T1, prostate-specific membrane antigen …; assay: FACS binding; C4-2 cells; apparent EC50

T1 sequence (Q04609 whole entry): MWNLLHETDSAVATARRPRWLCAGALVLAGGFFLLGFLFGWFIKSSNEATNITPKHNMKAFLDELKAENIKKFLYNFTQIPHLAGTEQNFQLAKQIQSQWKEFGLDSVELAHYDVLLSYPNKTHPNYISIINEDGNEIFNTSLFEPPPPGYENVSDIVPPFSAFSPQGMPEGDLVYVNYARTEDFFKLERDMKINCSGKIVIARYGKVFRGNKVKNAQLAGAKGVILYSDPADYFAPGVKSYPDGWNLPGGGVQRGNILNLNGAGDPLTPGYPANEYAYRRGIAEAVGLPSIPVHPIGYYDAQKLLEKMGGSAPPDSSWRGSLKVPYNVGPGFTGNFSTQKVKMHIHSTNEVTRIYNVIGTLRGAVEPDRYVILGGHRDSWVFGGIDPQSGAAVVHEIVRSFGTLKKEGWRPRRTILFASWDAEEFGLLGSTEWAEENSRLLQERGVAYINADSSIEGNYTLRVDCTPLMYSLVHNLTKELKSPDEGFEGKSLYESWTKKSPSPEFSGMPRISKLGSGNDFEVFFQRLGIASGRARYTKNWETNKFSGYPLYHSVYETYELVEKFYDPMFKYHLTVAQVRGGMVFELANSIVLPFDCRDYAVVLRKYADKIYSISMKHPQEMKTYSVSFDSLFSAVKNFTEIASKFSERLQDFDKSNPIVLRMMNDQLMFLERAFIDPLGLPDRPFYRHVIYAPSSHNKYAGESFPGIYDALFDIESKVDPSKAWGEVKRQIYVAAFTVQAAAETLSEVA

| Binder | EC50 [1] | EC50 [2] |
| --- | --- | --- |
| 107-1A4 murine monoclonal antibody (antibody, V domains shown) VH: EIQLQQSGPELVKPGASVKMSCKASGYTFTDYYMHWVKQNNGESLEWIGYFNPYNDYTRYNQNFNGKATLTVDKSSSTAYMQLNSLTSEDSAFYYCARSDGYYDAMDYWGQGTSVTVSS VL: DVQITQSPSYLAASPGETITINCRASKSISKYLAWYQEKPGKANKLLIHSGSTLQSGIPSRFSGSGSGTDFTLTISSLEPEDFAMYYCQQHIEYPWTFGGGTKLEIKR | 5.4 nM |  |
| TSC085 chimeric SMIP (murine 107-1A4 VL-VH scFv-human Fc) (Fc fusion) DVQITQSPSYLAASPGETITINCRASKSISKYLAWYQEKPGKANKLLIHSGSTLQSGIPSRFSGSGSGTDFTLTISSLEPEDFAMYYCQQHIEYPWTFGGGTKLEIKRAGGGGSGGGGSSGGGGSEIQLQQSGPELVKPGASVKMSCKASGYTFTDYYMHWVKQNNGESLEWIGYFNPYNDYTRYNQNFNGKATLTVDKSSSTAYMQLNSLTSEDSAFYYCARSDGYYDAMDYWGQGTSVTVSSSEPKSSDKTHTCPPCPAPEAAGAPSVFLFPPKPKDTLMISRTPEVTCVVVDVSHEDPEVKFNWYVDGVEVHNAKTKPREEQYNSTYRVVSVLTVLHQDWLNGKAYACAVSNKALPAPIEKTISKAKGQPREPQVYTLPPSRDELTKNQVSLTCLVKGFYPSDIAVEWESNGQPENNYKTTPPVLDSDGSFFLYSKLTVDKSRWQQGNVFSCSVMHEALHNHYTQKSLSLSPGK | 4.9 nM |  |
| TSC092 chimeric SMIP (murine 107-1A4 VH-VL scFv-human Fc) (Fc fusion) EIQLQQSGPELVKPGASVKMSCKASGYTFTDYYMHWVKQNNGESLEWIGYFNPYNDYTRYNQNFNGKATLTVDKSSSTAYMQLNSLTSEDSAFYYCARSDGYYDAMDYWGQGTSVTVSSGGGGSGGGGSSGGGGSDVQITQSPSYLAASPGETITINCRASKSISKYLAWYQEKPGKANKLLIHSGSTLQSGIPSRFSGSGSGTDFTLTISSLEPEDFAMYYCQQHIEYPWTFGGGTKLEIKRASSEPKSSDKTHTCPPCPAPEAAGAPSVFLFPPKPKDTLMISRTPEVTCVVVDVSHEDPEVKFNWYVDGVEVHNAKTKPREEQYNSTYRVVSVLTVLHQDWLNGKAYACAVSNKALPAPIEKTISKAKGQPREPQVYTLPPSRDELTKNQVSLTCLVKGFYPSDIAVEWESNGQPENNYKTTPPVLDSDGSFFLYSKLTVDKSRWQQGNVFSCSVMHEALHNHYTQKSLSLSPGK | 4 nM |  |

The next lines start with the values.

| EC50 [1] | EC50 [2] | Binder |
| --- | --- | --- |
|  | 2.1 nM | TSC189 humanized SMIP (107-1A4 VL-VH#2 scFv-Fc) (Fc fusion) DIQMTQSPSAMSASVGDRVTITCRASKSISKYLAWFQQKPGKVPKLRIHSGSTLQSGVPSRFSGSGSGTEFTLTISSLQPEDFATYYCQQHIEYPWTFGQGTKVEIKRGGGGSGGGGSGGGGSQVQLVQSGAEVKKPGASVKVSCKASGYTFTDYYMHWVRQAPGQGLEWMGYFNPYNDYTRYAQKFQGRVTMTRDTSISTAYMELSSLRSDDTAVYYCARSDGYYDAMDYWGQGTTVTVSSSEPKSSDKTHTCPPCPAPEAAGAPSVFLFPPKPKDTLMISRTPEVTCVVVDVSHEDPEVKFNWYVDGVEVHNAKTKPREEQYNSTYRVVSVLTVLHQDWLNGKAYACAVSNKALPAPIEKTISKAKGQPREPQVYTLPPSRDELTKNQVSLTCLVKGFYPSDIAVEWESNGQPENNYKTTPPVLDSDGSFFLYSKLTVDKSRWQQGNVFSCSVMHEALHNHYTQKSLSLSPGK |
|  | 3.2 nM | TSC188 humanized SMIP (107-1A4 VL-VH#1 scFv-Fc) (Fc fusion) DIQMTQSPSAMSASVGDRVTITCRASKSISKYLAWFQQKPGKVPKLRIHSGSTLQSGVPSRFSGSGSGTEFTLTISSLQPEDFATYYCQQHIEYPWTFGQGTKVEIKRGGGGSGGGGSGGGGSEVQLVQSGAEVKKPGATVKISCKASGYTFTDYYMHWVQQAPGKGLEWMGYFNPYNDYTRYAEKFQGRVTITADTSTDTAYMELSSLRSEDTAVYYCARSDGYYDAMDYWGQGTTVTVSSSEPKSSDKTHTCPPCPAPEAAGAPSVFLFPPKPKDTLMISRTPEVTCVVVDVSHEDPEVKFNWYVDGVEVHNAKTKPREEQYNSTYRVVSVLTVLHQDWLNGKAYACAVSNKALPAPIEKTISKAKGQPREPQVYTLPPSRDELTKNQVSLTCLVKGFYPSDIAVEWESNGQPENNYKTTPPVLDSDGSFFLYSKLTVDKSRWQQGNVFSCSVMHEALHNHYTQKSLSLSPGK |
